Results from patent US10941182 (Amgen, dated 2021).
Starred links: 1 amine or outer side, 2 acyl side, 3 side chain; linkers in the order of their positions; H or OH if unused. Non-standard residues stand in square brackets, D forms with d. Primed or numbered codes have the meaning given here. *: point of attachment. AC4Abu = α-carboxy-4-aminobutyric acid, O=C(C(CCN[*:1])C(=O)[*:3])[*:2]; Oic = O=C(O)[C@@H]1C[C@@H]2CCCC[C@@H]2N1; Phe(4-Cl) = N[C@@H](Cc1ccc(Cl)cc1)C(=O)O; γGlu = O=C(O)[C@H](CCC(=O)[*:2])N[*:1]; NMeR = CN[C@@H](CCCNC(=N)N)C(=O)O; Tridecanoyl = CCCCCCCCCCCCC(=O)*; hArg = N=C(N)NCCCC[C@H](N)C(=O)O; Cha = N[C@@H](CC1CCCCC1)C(=O)O; αMeL = CC(C)C[C@](C)(N)C(=O)O; αMeP = C[C@@]1(C(=O)O)CCCN1; β3hP = O=C(O)C[C@@H]1CCCN1; Nle = CCCC[C@H](N)C(=O)O; Pip′ = not defined here; AEEA = NCCOCCOCC(=O)O; Aib = CC(C)(N)C(=O)O; BLeu = β-leucine

T1: human APJ receptor (human, UniProt P35414 1-380)
T1 sequence (looked up): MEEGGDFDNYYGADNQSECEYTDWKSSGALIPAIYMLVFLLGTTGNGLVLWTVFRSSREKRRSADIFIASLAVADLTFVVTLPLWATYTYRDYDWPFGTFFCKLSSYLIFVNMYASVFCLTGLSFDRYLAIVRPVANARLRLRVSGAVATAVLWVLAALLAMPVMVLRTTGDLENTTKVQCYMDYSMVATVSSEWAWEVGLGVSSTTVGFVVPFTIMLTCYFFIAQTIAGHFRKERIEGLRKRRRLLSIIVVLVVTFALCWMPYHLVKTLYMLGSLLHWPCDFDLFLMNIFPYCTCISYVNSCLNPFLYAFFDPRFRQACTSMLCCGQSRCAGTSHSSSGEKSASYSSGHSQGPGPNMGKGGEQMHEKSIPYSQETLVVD

T2: rat APJ receptor (rat, UniProt Q9JHG3 1-377)
T2 sequence (looked up): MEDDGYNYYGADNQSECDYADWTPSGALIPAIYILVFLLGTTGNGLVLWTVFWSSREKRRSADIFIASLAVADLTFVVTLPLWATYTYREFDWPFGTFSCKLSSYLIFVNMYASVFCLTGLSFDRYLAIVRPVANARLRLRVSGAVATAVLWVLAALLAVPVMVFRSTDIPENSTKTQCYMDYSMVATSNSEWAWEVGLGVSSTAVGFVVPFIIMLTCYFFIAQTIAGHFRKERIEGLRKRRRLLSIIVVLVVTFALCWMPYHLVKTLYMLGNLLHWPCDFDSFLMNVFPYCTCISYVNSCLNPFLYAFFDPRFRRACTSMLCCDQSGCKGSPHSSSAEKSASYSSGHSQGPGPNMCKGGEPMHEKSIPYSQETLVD

B1: Apelin polypeptide SEQ ID NO: 524 (peptide)
peptide: Tridecanoyl-[γGlu][AEEA][AEEA][dQ]EP[NMeR][Cha]SHKG[Oic][Nle][Aib][Phe(4-Cl)]-OH
SMILES: CCCCCCCCCCCCC(=O)N[C@@H](CCC(=O)NCCOCCOCC(=O)NCCOCCOCC(=O)N[C@H](CCC(N)=O)C(=O)N[C@@H](CCC(=O)O)C(=O)N1CCC[C@H]1C(=O)N(C)[C@@H](CCCNC(=N)N)C(=O)N[C@@H](CC1CCCCC1)C(=O)N[C@@H](CO)C(=O)N[C@@H](Cc1c[nH]cn1)C(=O)N[C@@H](CCCCN)C(=O)NCC(=O)N1[C@H](C(=O)N[C@@H](CCCC)C(=O)NC(C)(C)C(=O)N[C@@H](Cc2ccc(Cl)cc2)C(=O)O)C[C@@H]2CCCC[C@@H]21)C(=O)O
B2: Apelin polypeptide SEQ ID NO: 503 (peptide)
peptide: XXXQRPRLSHKGXXPF
modifications: {TDA}[AC4Abu][Aeea][Aeea]qR[aMePro][hArg][BLeu]SHKG[Pip][Nle][aMePro][4-Cl-F]{COOH}
B3: Apelin polypeptide SEQ ID NO: 520 (peptide)
peptide: Tridecanoyl-[γGlu][AEEA][AEEA]QP[NMeR][Cha]SHKG[Oic][Nle][Aib][Phe(4-Cl)]-OH
SMILES: CCCCCCCCCCCCC(=O)N[C@@H](CCC(=O)NCCOCCOCC(=O)NCCOCCOCC(=O)N[C@@H](CCC(N)=O)C(=O)N1CCC[C@H]1C(=O)N(C)[C@@H](CCCNC(=N)N)C(=O)N[C@@H](CC1CCCCC1)C(=O)N[C@@H](CO)C(=O)N[C@@H](Cc1c[nH]cn1)C(=O)N[C@@H](CCCCN)C(=O)NCC(=O)N1[C@H](C(=O)N[C@@H](CCCC)C(=O)NC(C)(C)C(=O)N[C@@H](Cc2ccc(Cl)cc2)C(=O)O)C[C@@H]2CCCC[C@@H]21)C(=O)O
B4: Apelin polypeptide SEQ ID NO: 475 (peptide)
peptide: Tridecanoyl-[γGlu][AEEA][AEEA]QEP[NMeR]LSHKGP[Nle]P[Phe(4-Cl)]-OH
SMILES: CCCCCCCCCCCCC(=O)N[C@@H](CCC(=O)NCCOCCOCC(=O)NCCOCCOCC(=O)N[C@@H](CCC(N)=O)C(=O)N[C@@H](CCC(=O)O)C(=O)N1CCC[C@H]1C(=O)N(C)[C@@H](CCCNC(=N)N)C(=O)N[C@@H](CC(C)C)C(=O)N[C@@H](CO)C(=O)N[C@@H](Cc1c[nH]cn1)C(=O)N[C@@H](CCCCN)C(=O)NCC(=O)N1CCC[C@H]1C(=O)N[C@@H](CCCC)C(=O)N1CCC[C@H]1C(=O)N[C@@H](Cc1ccc(Cl)cc1)C(=O)O)C(=O)O
B5: Apelin polypeptide SEQ ID NO: 525 (peptide)
peptide: Tridecanoyl-[γGlu][AEEA][AEEA][dQ][dE]P[NMeR][Cha]SHKG[Oic][Nle][Aib][Phe(4-Cl)]-OH
SMILES: CCCCCCCCCCCCC(=O)N[C@@H](CCC(=O)NCCOCCOCC(=O)NCCOCCOCC(=O)N[C@H](CCC(N)=O)C(=O)N[C@H](CCC(=O)O)C(=O)N1CCC[C@H]1C(=O)N(C)[C@@H](CCCNC(=N)N)C(=O)N[C@@H](CC1CCCCC1)C(=O)N[C@@H](CO)C(=O)N[C@@H](Cc1c[nH]cn1)C(=O)N[C@@H](CCCCN)C(=O)NCC(=O)N1[C@H](C(=O)N[C@@H](CCCC)C(=O)NC(C)(C)C(=O)N[C@@H](Cc2ccc(Cl)cc2)C(=O)O)C[C@@H]2CCCC[C@@H]21)C(=O)O
B6: Apelin polypeptide SEQ ID NO: 504 (peptide)
peptide: XXXQRPRLSHKGPXPF
modifications: {TDA}[AC4Abu][Aeea][Aeea]qR[aMePro][hArg][BLeu]SHKG[aMePro][Nle][aMePro][4-Cl-F]{COOH}
B7: Apelin polypeptide SEQ ID NO: 553 (peptide)
peptide: Tridecanoyl-[γGlu][AEEA][AEEA][dQ]R[β3hP][NMeR][αMeL]SHKG[Oic][Nle][αMeP][Phe(4-Cl)]-OH
SMILES: CCCCCCCCCCCCC(=O)N[C@@H](CCC(=O)NCCOCCOCC(=O)NCCOCCOCC(=O)N[C@H](CCC(N)=O)C(=O)N[C@@H](CCCNC(=N)N)C(=O)N1CCC[C@H]1CC(=O)N(C)[C@@H](CCCNC(=N)N)C(=O)N[C@@](C)(CC(C)C)C(=O)N[C@@H](CO)C(=O)N[C@@H](Cc1c[nH]cn1)C(=O)N[C@@H](CCCCN)C(=O)NCC(=O)N1[C@H](C(=O)N[C@@H](CCCC)C(=O)N2CCC[C@@]2(C)C(=O)N[C@@H](Cc2ccc(Cl)cc2)C(=O)O)C[C@@H]2CCCC[C@@H]21)C(=O)O

Assays:
human APJ receptor = molecular target: T1, human APJ receptor; assay: cell-based or functional assay
rat APJ receptor = molecular target: T2, rat APJ receptor; assay: cell-based or functional assay

| Binder | EC50 Human APJ Receptor (GTPγS assay) (human APJ receptor) | EC50 Rat APJ Receptor (GTPγS assay) (rat APJ receptor) |
| --- | --- | --- |
| B1 | 53.2 nM | 346 nM |
| Tridecanoyl-[γGlu][AEEA][AEEA][dQ]R[αMeP][hArg][BLeu]SHKG[Oic][Nle][Aib][Phe(4-Cl)]-OH [Apelin polypeptide SEQ ID NO: 505] | 0.0707 nM | 0.516 nM |
| Tridecanoyl-[γGlu][AEEA][AEEA][dQ]R[αMeP][hArg][BLeu]SHKG[Oic][Nle][αMeP][Phe(4-Cl)]-OH [Apelin polypeptide SEQ ID NO: 502] | 0.456 nM | 4.81 nM |
| Tridecanoyl-[AC4Abu][AEEA][AEEA]QR[αMeP][hArg][BLeu]SHKG[Oic][Nle]P[Phe(4-Cl)]-OH [Apelin polypeptide SEQ ID NO: 392] | 0.584 nM | 0.856 nM |
| Tridecanoyl-[γGlu][AEEA][AEEA][dQ]R[β3hP][hArg][BLeu]SHKG[Oic][Nle][Aib][Phe(4-Cl)]-OH [Apelin polypeptide SEQ ID NO: 522] | 0.523 nM | 6.77 nM |
| Tridecanoyl-[γGlu][AEEA][AEEA][dQ]R[αMeP][Nle][BLeu]SHKG[Oic][Nle][αMeP][Phe(4-Cl)]-OH [Apelin polypeptide SEQ ID NO: 523] | 25.6 nM | 71.9 nM |
| Tridecanoyl-[γGlu][AEEA][AEEA][dQ]R[αMeP][hArg][BLeu]SHKG[Pip′][Nle][Phe(4-Cl)]-OH [Apelin polypeptide SEQ ID NO: 501] | 10.9 nM | 68.2 nM |
| B2 | 0.16 nM | 2.12 nM |
| Tridecanoyl-[γGlu][AEEA][AEEA][dQ]R[αMeP][hArg][BLeu]SHKG[Oic][Nle][Phe(4-Cl)]-OH [Apelin polypeptide SEQ ID NO: 519] | 9.74 nM | 44.7 nM |
| B3 | 9.18 nM | 56.1 nM |
| B4 | 10.3 nM | 35.9 nM |
| B5 | 158 nM | 243 nM |
| Tridecanoyl-[γGlu][AEEA][AEEA][dQ]R[αMeP][hArg][BLeu]SHKG[Oic][Nle][β3hP][Phe(4-Cl)]-OH [Apelin polypeptide SEQ ID NO: 556] | 18 nM | 69.1 nM |
| B6 | 1.39 nM | 23.1 nM |
| B7 | 2.23 nM | 2.01 nM |
